For data set [1], the target named is T1, NEIL1 (Homo sapiens, UniProt Q96FI4 1-390). The data set is described as follows: EMSA.
The target of data set [2] is T2, NEIL2 (Homo sapiens, UniProt Q969S2 1-332).
T2 sequence: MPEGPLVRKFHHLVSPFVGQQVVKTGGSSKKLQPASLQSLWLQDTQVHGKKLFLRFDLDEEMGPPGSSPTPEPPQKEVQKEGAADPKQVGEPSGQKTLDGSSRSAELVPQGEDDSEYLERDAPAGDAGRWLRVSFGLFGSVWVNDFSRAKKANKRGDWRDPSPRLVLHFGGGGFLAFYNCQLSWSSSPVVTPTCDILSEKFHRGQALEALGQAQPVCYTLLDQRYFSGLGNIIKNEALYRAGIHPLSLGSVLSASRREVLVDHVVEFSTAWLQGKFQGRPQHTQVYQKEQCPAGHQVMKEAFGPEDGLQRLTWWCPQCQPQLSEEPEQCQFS
The data set is described as follows: EMSA.

The target in a further data set is TDG (Homo sapiens, UniProt Q13569 1-410). The data set is described as follows: EMSA.
Sequence of TDG (Q13569 whole entry): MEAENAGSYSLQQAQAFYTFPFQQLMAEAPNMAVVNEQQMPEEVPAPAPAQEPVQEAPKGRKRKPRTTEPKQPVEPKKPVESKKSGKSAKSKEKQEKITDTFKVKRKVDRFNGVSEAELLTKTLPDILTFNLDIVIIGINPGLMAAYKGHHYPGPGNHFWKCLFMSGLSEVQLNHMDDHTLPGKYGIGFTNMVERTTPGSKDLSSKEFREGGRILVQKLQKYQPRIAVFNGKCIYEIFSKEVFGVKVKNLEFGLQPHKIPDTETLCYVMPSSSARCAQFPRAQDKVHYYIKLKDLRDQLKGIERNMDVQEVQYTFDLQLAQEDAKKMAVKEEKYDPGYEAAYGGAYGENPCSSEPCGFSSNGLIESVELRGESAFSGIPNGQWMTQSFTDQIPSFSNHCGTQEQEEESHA
Data set [3] has as its target human thymine DNA glycosylase (TDG), recombinant (human, UniProt Q13569 1-410). Put plainly: MST.
Data set [4] concerns the target T2, NEIL2. Put plainly: EMSA. The source holds these as a separate data set.
The target of data set [5] is T1, NEIL1. Put plainly: EMSA. This is another data set of the same source.

T1 sequence (Q96FI4 whole entry): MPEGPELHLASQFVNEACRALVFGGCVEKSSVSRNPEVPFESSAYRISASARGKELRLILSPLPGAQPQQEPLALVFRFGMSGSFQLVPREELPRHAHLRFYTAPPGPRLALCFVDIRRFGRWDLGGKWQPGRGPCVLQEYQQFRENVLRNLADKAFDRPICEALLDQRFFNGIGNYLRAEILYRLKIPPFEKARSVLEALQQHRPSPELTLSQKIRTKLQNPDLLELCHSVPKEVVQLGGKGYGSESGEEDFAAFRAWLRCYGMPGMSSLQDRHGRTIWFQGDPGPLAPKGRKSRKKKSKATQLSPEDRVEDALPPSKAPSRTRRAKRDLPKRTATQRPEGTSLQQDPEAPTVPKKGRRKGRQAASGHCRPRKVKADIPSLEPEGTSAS
Sequence of human thymine DNA glycosylase (TDG), recombinant (Q13569 whole entry): as the sequence (Q13569 whole entry) above

B1: 20mer_5caC duplex (5caC:G) (dsDNA)
DNA 1: CGCTAGGATCCGGCCCCGCC
DNA 2: GGCGGGGCCGGATCCTAGCG
modifications: 5-carboxylcytosine at position 11 of strand 1 (hemi-modified)
Turning to B1, the binding result with NEIL1 [1], in the data set with NEIL2 [2] and with TDG was “binds” throughout.

B2: human NEIL2 DNA glycosylase, recombinant (enzyme, UniProt Q969S2 1-332, looked up)
chain: T2 sequence
B2: in data set [3], the binding result was “binds”.

B3: 20mer_5fC duplex (5fC:G) (dsDNA)
DNA 1: CGCTAGGATCCGGCCCCGCC
DNA 2: GGCGGGGCCGGATCCTAGCG
modifications: 5-formylcytosine at position 11 of strand 1 (hemi-modified)
In the case of B3, the binding result with NEIL1 [1], with NEIL2 [2] and with TDG was “binds” throughout.

B4: 20mer_dC duplex (unmodified) (dsDNA)
DNA 1: CGCTAGGATCCGGCCCCGCC
DNA 2: GGCGGGGCCGGATCCTAGCG
As for B4, in the data set with NEIL2 [4], the dissociation constant (Kd) came out at 27 nM. The binding signal in the data set with NEIL1 [5] is 3 fold lower affinity than AP site duplex.

These data come from article PMC4894546 (Nature structural & molecular biology, 2016).
